Test results reported in PMC11849630.

Target: eGFP-tagged htau 441 ΔK280 mutant (eGFP-tau ΔK280) (human) (UniProt P10636)
Assay: fluorescence correlation spectroscopy (FCS/FCCS) in live cells; HEK293T cells overexpressing fluorescent-protein-fused tau; diffusion coefficient fitted (3D normal diffusion), mass by Stokes-Einstein, calibrated with eGFP-mCherry fusion; only tau not bound to microtubules

- stoichiometry N: 19
Substance: eGFP-tagged htau 441 ΔK280 mutant (eGFP-tau ΔK280) (from UniProt P10636-8 1-441) (natural protein)
